Patent US20030105000A1 (UNIVERSITY OF VERMONT AND STATE AGRICULTURAL COLLEGE, published 2003)
Positions of bridges follow the written chain, without caps; N, C: chain ends. No end group written: not given here.

Experiments:
[1] = molecular target: T1, Grb7-SH2 domain-GST (SH2 domain of human Grb7 containing a GST fusion tag) (human, UniProt Q14451 415-532); test: assay not described (sentence of Example 3)
T1 construct: domain: SH2 domain; Purified from E. coli; also called Grb7-SH2-GST; not shown: glutathione-S-transferase (GST) fusion tag
T1 sequence (Q14451 415-532): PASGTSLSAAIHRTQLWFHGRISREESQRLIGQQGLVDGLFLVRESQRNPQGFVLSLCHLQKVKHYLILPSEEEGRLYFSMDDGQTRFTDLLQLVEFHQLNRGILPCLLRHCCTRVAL

[2] = molecular target: T2, Grb2-GST (UniProt P62993 1-217); test: phage ELISA on coated protein (FIG. 1)
T2 construct: also called full length Grb2; not shown: glutathione-S-transferase (GST) fusion partner
T2 sequence (P62993 whole entry, the tested form may be a part): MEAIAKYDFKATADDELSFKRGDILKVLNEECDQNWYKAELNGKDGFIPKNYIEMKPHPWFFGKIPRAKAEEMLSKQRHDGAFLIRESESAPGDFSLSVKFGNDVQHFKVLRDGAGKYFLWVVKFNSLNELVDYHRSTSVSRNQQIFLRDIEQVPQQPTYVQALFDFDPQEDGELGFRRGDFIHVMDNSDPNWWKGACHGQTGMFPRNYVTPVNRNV
Description: (§1) The overall methodology of an ELISA is well established. […] Non-specific binding was blocked by casein. Binding of phage was detected using an anti-phage antibody conjugated to horseradish peroxidase.

[3] = molecular target: T3, BSA (UniProt P02769 25-607); test: phage ELISA on coated protein (FIG. 1)
T3 construct: also called bovine serum albumin
T3 sequence (P02769 25-607 limits assumed): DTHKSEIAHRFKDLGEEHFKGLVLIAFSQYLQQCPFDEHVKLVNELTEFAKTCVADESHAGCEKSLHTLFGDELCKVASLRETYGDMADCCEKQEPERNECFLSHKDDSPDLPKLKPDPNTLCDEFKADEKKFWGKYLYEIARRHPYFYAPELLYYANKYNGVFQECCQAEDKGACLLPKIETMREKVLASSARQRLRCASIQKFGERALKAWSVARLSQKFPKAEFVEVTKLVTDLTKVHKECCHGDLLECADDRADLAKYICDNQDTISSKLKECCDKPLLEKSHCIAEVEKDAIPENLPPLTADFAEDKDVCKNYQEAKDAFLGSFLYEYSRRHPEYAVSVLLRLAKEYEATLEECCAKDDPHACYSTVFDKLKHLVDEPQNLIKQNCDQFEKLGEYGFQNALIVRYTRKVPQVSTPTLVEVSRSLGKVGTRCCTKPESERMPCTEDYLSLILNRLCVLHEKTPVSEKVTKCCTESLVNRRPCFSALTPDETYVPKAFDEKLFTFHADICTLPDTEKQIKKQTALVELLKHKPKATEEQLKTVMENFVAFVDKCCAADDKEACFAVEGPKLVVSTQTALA
Description: as §1

[4] = molecular target: T4, GST alone (UniProt P08515 1-218 = GST); test: phage ELISA on coated protein (FIG. 1)
T4 construct: Control protein coated on the ELISA plate; also called fusion protein (GST)
T4 sequence (P08515 whole entry, the tested form may be a part): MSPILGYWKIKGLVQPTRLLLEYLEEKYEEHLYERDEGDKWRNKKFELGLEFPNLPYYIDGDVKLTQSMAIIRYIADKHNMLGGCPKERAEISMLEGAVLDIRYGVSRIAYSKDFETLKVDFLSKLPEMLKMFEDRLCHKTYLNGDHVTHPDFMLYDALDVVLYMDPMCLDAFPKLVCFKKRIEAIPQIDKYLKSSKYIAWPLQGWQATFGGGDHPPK
Description: as §1

[5] = molecular target: T5, Grb14-SH2-GST (UniProt Q14449 423-540); test: phage ELISA (FIG. 4)
T5 construct: domain: SH2 domain; also called SH2 domain of Grb14; not shown: glutathione-S-transferase (GST) fusion partner
T5 sequence (looked up): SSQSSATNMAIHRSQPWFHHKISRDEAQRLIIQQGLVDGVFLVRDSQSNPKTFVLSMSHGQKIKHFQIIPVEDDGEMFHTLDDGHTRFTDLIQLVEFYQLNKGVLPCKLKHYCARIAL

[6] = molecular target: T1, Grb7-SH2 domain-GST (SH2 domain of …); test: phage ELISA on coated Grb7-SH2 domain-GST, anti-phage-HRP (FIG. 1)
Description: as §1

[7] = molecular target: T2, Grb2-GST; test: phage ELISA (FIG. 4)
[8] = molecular target: T1, Grb7-SH2 domain-GST (SH2 domain of …); test: phage ELISA (legend of FIG. 1)
Description: as §1

[9] = molecular target: T1, Grb7-SH2 domain-GST (SH2 domain of …); test: competition ELISA on Grb7-SH2-GST; competitor G7-18 peptide-phage (FIG. 5A)
Description: (§2) Unbound phage were washed away with Tween-TBS buffer and bound phage were detected with anti-M13-horseradish peroxidase (Amersham-Pharmacia Biotech) and ABTS substrate (Calbiochem). […] Plates were read at OD₄₀₅.

[10] = molecular target: T1, Grb7-SH2 domain-GST (SH2 domain of …); test: competition ELISA on Grb7-SH2-GST; free peptide 1, 10, 100 uM; competitor G7-18 peptide-phage (FIG. 5A)
Description: as §2

[11] = molecular target: T2, Grb2-GST; test: competition ELISA against Grb2-binding peptide-phage (data not shown)
[12] = molecular target: T1, Grb7-SH2 domain-GST (SH2 domain of …); test: competition ELISA on Grb7-SH2-GST; competitor G7-8NA peptide-phage (FIG. 5B)
Description: as §2

Row | Binder | binding result [1] | binding result [2] | binding result [3] | binding result [4] | binding result [5] | binding result [6] | other results
1 | CNEELYENCGGC (disulfide (positions not given here); not fully specified) [G7BP-6NA] | binds |  |  |  |  |  | 
2 | GVSNCVFWGYANDWLCSDYS (peptide, not shown: large carriers, disulfide 5-16; also: displayed on phage gene III protein, Tested as a phage clone displaying the peptide on the gene III protein; also called G7-8 peptide-phage) [G7BP-4 peptide-phage clone] |  | no binding | no binding | no binding | no binding | binds | 
3 | KLFWCTYEDYANEWPCPGYS (peptide, not shown: large carriers, disulfide 5-16; also: displayed on phage gene III protein, Tested as a phage clone displaying the peptide on the gene III protein) [G7BP-2 peptide-phage clone] |  |  | no binding | no binding | no binding |  | binding result [7]: no binding; binding result [8]: binds
4 | CGYIGYDNIFEC (disulfide 1-12 (inferred)) [G7BP-7NA] | binds |  |  |  |  |  | 
5 | RTSPCGYIGYDNIFECTYLG (peptide, not shown: large carriers, disulfide 5-16; also: displayed on phage gene III protein, Tested as a phage clone displaying the peptide on the gene III protein) [G7BP-7 peptide-phage clone] |  | no binding | no binding | no binding | no binding | binds | 
6 | WFEGYDNTFPC (non-phosphorylated; thioether bond between the ends of the peptide (N-terminal cysteine replaced by another functional group), Lacks the 4-residue arms on both sides; cyclised by a thioether; also called G7BP-5NATE; G7-18NATE (thioether)) [G7-18NATE free synthetic peptide] |  |  |  |  |  |  | binding result [9]: binds
7 | FCAVCNEELYENCGGCSVGK (peptide, not shown: large carriers, disulfide 5-16; cysteine pairing not given here; also: displayed on phage gene III protein, Tested as a phage clone displaying the peptide on the gene III protein) [G7BP-6 peptide-phage clone] |  | no binding | no binding | no binding | no binding | binds | 
8 | GVSNCVFWGYANDWLCSDYS (disulfide 5-16 (inferred), Free synthetic peptide, not on phage; also called G7BP-4) [G7-8 free synthetic peptide] |  |  |  |  |  |  | binding result [10]: binds; binding result [11]: no binding
9 | RSTLCWFEGYDNTFPCKYFR (peptide, not shown: large carriers, disulfide 5-16; also: displayed on phage gene III protein, Tested as a phage clone; also called G7-18 peptide-phage) [G7BP-5 peptide-phage clone] |  | no binding | no binding | no binding | no binding | binds | 
10 | VFWGYANDWLC (non-phosphorylated; thioether bond between the ends of the peptide (N-terminal cysteine replaced by another functional group), Lacks the arms; also called G7BP-4NATE) [G7-8NATE free synthetic peptide] |  |  |  |  |  |  | binding result [12]: binds
11 | CKYLYYDNDYLC (disulfide 1-12 (inferred)) [G7BP-1NA] | binds |  |  |  |  |  | 
12 | CWFEGYDNTFPC (also called G7-18NA) [G7BP-5NA] | binds |  |  |  |  |  | 
13 | RSTLCWFEGYDNTFPCKYFR (disulfide 5-16 (inferred), Free synthetic peptide, not on phage; also called G7BP-5; G7-18 (disulfide)) [G7-18 free synthetic peptide] |  |  |  |  |  |  | binding result [10]: binds; binding result [11]: no binding
14 | CIYIHYDNWSLC (disulfide 1-12 (inferred)) [G7BP-3NA] | binds |  |  |  |  |  | 
15 | NVSECIYIHYDNWSLCGVEV (peptide, not shown: large carriers, disulfide 5-16; also: displayed on phage gene III protein, Tested as a phage clone displaying the peptide on the gene III protein) [G7BP-3 peptide-phage clone] |  | no binding | no binding | no binding | no binding | binds | 
